This assay has as its target monomeric p51 subunit of HIV-1 RT (HIV-1) (UniProt P03366). In words: size-exclusion chromatography, 3.5 µM p51 with 20 µM FITC-PAW. A general note: Size exclusion chromatography separates by hydrodynamic size, large species first.

For the substance “monomeric p51 subunit of HIV-1 RT (from UniProt P03366 600-1039) (enzyme)”, the percent of p51 dimeric worked out at 4.6%.

Source of the values: US20110294728A1, “Antiviral Polypeptides” (priority 2008, published 2011).
